According to paper PMC6256345 (2018):
Non-standard residues stand in square brackets, D forms with d. *: point of attachment. Pyrrolidinyl(2S-CHPh2) = c1ccc(C(c2ccccc2)[C@@H]2CCCN2*)cc1; pS = N[C@@H](COP(=O)(O)O)C(=O)O

Key:
[1] = target: T1, modified Tau peptide 3.2c pS214 epitope (Homo sapiens, UniProt P10636, phosphoS214, N-acetyl, C-terminal L-Ala-(S)-2-benzhydrylpyrrolidine); experiment: ITC
[2] = target: T2, modified Tau peptide 4.2d-II pS214 epitope (Homo sapiens, UniProt P10636, also: regioisomer, substituent position not given here); experiment: ITC
T2 chain: Ac-SRTP[pS]LPG-{(methoxyethoxy)‑substituted benzhydrylpyrrolidine}

[3] = target: T3, modified Tau peptide 3.2d pS214 epitope (Homo sapiens, UniProt P10636, phosphoS214, N-acetyl, C-terminal D-Ala-(S)-2-benzhydrylpyrrolidine); experiment: ITC
[4] = target: T4, modified Tau peptide 3.2a pS214 epitope (Homo sapiens, UniProt P10636, phosphoS214, N-acetyl, C-terminal L-Thr-(S)-2-benzhydrylpyrrolidine); experiment: ITC
[5] = target: T5, modified Tau peptide 3.2b pS214 epitope (Homo sapiens, UniProt P10636, phosphoS214, N-acetyl, C-terminal Gly-(S)-2-benzhydrylpyrrolidine); experiment: ITC
[6] = target: T6, modified Tau peptide 4.2f-I pS214 epitope (Homo sapiens, UniProt P10636, also: substituent position not given here); experiment: ITC
T6 chain: Ac-SRTP[pS]LPG-{methoxy‑substituted benzhydrylpyrrolidine}

[7] = target: T7, modified Tau peptide 3.2f pS214 epitope (Homo sapiens, UniProt P10636, SMILES …); experiment: ITC
T7 chain: Ac-SRTP[pS]LP[dV]-{Pyrrolidinyl(2S-CHPh2)}

[8] = target: T1, modified Tau peptide 3.2c pS214 epitope; experiment: FP competition
[9] = target: T3, modified Tau peptide 3.2d pS214 epitope; experiment: FP competition
[10] = target: T4, modified Tau peptide 3.2a pS214 epitope; experiment: FP competition
[11] = target: T5, modified Tau peptide 3.2b pS214 epitope; experiment: FP competition
[12] = target: T7, modified Tau peptide 3.2f pS214 epitope; experiment: FP competition
[13] = target: T8, modified Tau peptide 3.2e pS214 epitope (Homo sapiens, UniProt P10636, SMILES …); experiment: FP competition
T8 chain: Ac-SRTP[pS]LPV-{Pyrrolidinyl(2S-CHPh2)}

B1: 14-3-3ζ (protein)
chain: MDKNELVQKAKLAEQAERYDDMAACMKSVTEQGAELSNEERNLLSVAYKNVVGARRSSWRVVSSIEQKTEGAEKKQQMAREYREKIETELRDICNDVLSLLEKFLIPNASQAESKVFYLKMKGDYYRYLAEVAAGDDKKGIVDQSQQAYQEAFEISKKEMQPTHPIRLGLALNFSVFYYEILNSPEKACSLAKTAFDEAIAELDTLSEESYKDSTLIMQLLRDNLTLWTSDTQGDEAEAGEGGEN
Kd [1]: 3.3 µM
Kd [2]: 20.6 µM
Kd [3]: 3 µM
Kd [4]: 5.4 µM
Kd [5]: 5.6 µM
Kd [6]: 4.7 µM
Kd [7]: 3.4 µM
IC50 [8]: 5.3 µM
IC50 [9]: 6.2 µM
IC50 [10]: 8.1 µM
IC50 [11]: 5.9 µM
IC50 [12]: 7.6 µM
IC50 [13]: 6.2 µM
